Assay results from the DeepSol protein solubility set.

Experiment: soluble on expression in E. coli; label from the status in PepcDB or PDB records

Soluble on expression in E. coli, not soluble:
MGSDKIHHHHHHMPKSVQDDAIEAGTLLSVQGLTVGLPPGMDRRYAVEDMSFDLKAGEILCIIGESGSGKSVTANATMGLLAQSLHIVSGSIMLEGQELVGADAATLRALRGRIVSMIFQDPLSALNPLMTVGDQIAEVMEAHGIGTQQERRARVLDLITEVGLPDPELMQHQYPFRLSGGQRQRVMIAMALALEPKVLIADEPTTALDVTTQAQILELIASIQRRKQMSVMFITHDFGVVAEIADRVIVMEKGHVVEQGSASVVLKSPDHPYTQRLIAAVPRMRASDRENEADTPVVLEARNLCKTYGTGSGFLSKGRVIKAVDDVSFTIAKGRTLGIVGESGSGKSSLGRLLVKLMNSDSGEILFGGRDIAPLSEEAFRSMRPYIQMIFQDPFASLNPRQTIGRILTVGPVAQATPIHEARTRAMRLLERVGLDAGAYDRYPHEFSGGQRQRIGIARALMFNPMLIVADEAVSALDVSIQAQILQLLTEVQQEMKLAMAFITHDLRVASQICDEIAVMYKGRIVEYGPPSQIFRNPTHDYTRQLVSAIPGTEWEPAVMV, MGSDKIHHHHHHMPLLDIRNLTIELDTPHGRVKALEKVSLMLHAGEIHGLVGESGSGRSLLARAVLGIPGPNWTITADRMMWDGRNLMEMSDVERRNLMGKDMAMIFQDPSGSLDPVITIGAQLIEAMPADKNVPFWRRGRERRLTAQKWLHKVGIKDPKRVMASYPWETSEGECQKVMIAMALANQPRLLIADEPTNSMEPSTQAQIFRLLAQLNQLQGVTIMMISHELETLADWCNNLTVLYCGQVMESGPIDELIREPLHPYTKALMDHLPDYRGNLPHKSLMPVLPGSAPALQHLPIGCRLGPRCPEARRECVHQPQLQHQKDRYYACHFPYRTETNNDDTAA, MGSDKIHHHHHHMPLLPQPAGSVTTGRYTFAAAQVHAQTLTVCIVCNNTLYPAGSAVMSRVNVSLLQSGMILSEDVTDSNGRKLLCAGDAITEKHLRILKIWGVAEVDVEGIEPADAARSALDGLDPLRVEAAAARATARFALNDLQYEPVCMLMQCSVAALAKGADPVAPLPDYSVLPAAPMPSAPPALADMLRDDTRLGSLPPVFHRLVDVVNDPRSSATDMAEVIANDTDLSARLLRLVNSTFYGLRAKVDTITRAVTIIGSNQLVSLAMGAVMTTFFKGLPNSIVDMRSFWEHSVACGVAARLLASLHRMPNTERFFVAGLLHDIGRLAVYRLLPEHSLYMLTESRRRGISMRAMEREVLGFSHDRLGGRLLKEWRCPVSLERNVALHHTPGSGHGGLESAIINVADILAHTLEFGTSGEVLVPRLEQAVWDALALPAGTLEQAAAQMDYQVHEIIRFFELDE, MGSDKIHHHHHHMPLTMNKDVFITCAVTGSGSTQDRSPHVPRSPKQIAESAIEAARAGAAIVHCHVRDPESGAPSRDLSYYREVTDRIREADIDVVLNLTAGMGGDITFGSTDAPFPVDEAGTDMVGAAERVAHIADCLPEICTLDCGTMNFAEADYVMTNTPGMLRAMGRMMTDLGVKPEIEAFDTGHLWFAKELVKEGVLDSPALVQLCMGVPWGAPDDLNTFMAMVNNVPDNWTFSAFALGRNEMAYVAASVLAGGNVRVGLEDNLWLEKGVLATNAQLVEQAVGIIEGMGARVIGPDMVRETLGLTKQAPA, MGSDKIHHHHHHMPMNIVQVIPSFNVGGGELLAVRLCAEIKNQRPDYKVTLISLYDPIPSIVYDEALASDAQIVTLGKKKGFDPFTPLRMLKTLRAIKPDVIHTHLAGLRYTLLAGVLGNYSLKVHTVHNLATHETFGFLKNVHRVAFKFFSWIPVSLSKEVQDSVRDMYCLESVIVNNGIKTNSEIINKSKEDIRKHYGLPLNSKIIITIGRLCTQKNQLLLIESFNKVCKNAENYTLLIVGEDNLNGSYKNKIDKIISELPDITRENLHLLGPRKDIPELLIASDVFVLSSDWEGVPLTLLEAMGYGTPVVCTSVGGIPDVIEHGFDGLLVSKGDSKSLGNAIIEVLSNNSFASSLAHNARKKFSQLYSIEMTAEKYLQLYNA, MGSDKIHHHHHHMPNIPLRVNSLATEHPNNAQNSDKMPTFDAIFSHLSAIASHNSHQIIALLPSSDANWPAALIAERLTQAGSKQHLQKQHLHLHLFAQHQASWLKALAESETLASPAKEQIKAICDARVSGSHRLKLVNARLIIDIHLGDPLTQLKDLVSPSLASQAIQGWLANTQATDEALIWQMARLSQDNAEFLLLENNDVNLDKTSNNANTNLLTQLIIKAGFTCYRLNLSLKDDQLVTLAEKPSLASLEIAMVERRALRRQQLDKFAFNPLTQGREGETAIIGGGVASANLALSLAERGKKVSFFCMDKAPGEQASGNKQGAIYPLLTPEHGSLSHYFLLGYLFSRQRIKQLLESGHEIPHDFCGVLQTGHDERSHKRLTKIINAQPWAESIARPVDALQATALAGVTIEHQGIYYPLAGWVSPQ, MGSDKIHHHHHHMPPRPFDEMTNPDGGIRSPYGLYSDWVNQTPLDVLRQKHAQADVLFRRIGITFAVYGDNQGGERLIPFDVVPRIISKKEWDILSRGVCQRVDALNRFIYDVYHDQEILKAGKVPKGLVRNNGQFRKEMVGFTPPRNLYVQIAGIDIVRTAENEFHVLEDNLRTPSGVSYMLENRDVMTRLFPELFNRHPVAPVNHYAQELLKTLQYSAPDHADNPTVVVLTPGQYNSAYFEHAFLADEMGIELVQGQDLFVEGGHVYMRTIAGPQRVDVIYRRIDDDFLDPLAFRKDSMLGVPGLFEAYRSGAVTLANAIGTGIADDKAIYDFVPGMIEFYLGEKPILRNVPTYHLDDDDDRAYVLEHLAELVVKEVHGSGGYGMLVGPRASRQQISDYRDRILADPANFIAQPTLALSTCPTFVDQGLAPRHVDLRPFVLAGKTTQVVPGGLTRVALEKDSLVVNSSQGGGTKDTWVLER, MGSDKIHHHHHHMPQTEAPDRILLIKLRHHGDILLTTPVARTLKSRFPQCEIDMLVYRETVPLLQHNPDIARVWTLDRSLRGWRKLVSQLRLLLALRRRRYQTVIHLSDQMQGAFFAKLLARRHAIGFDYPKRRKSPWHRFFTALAPLAPSDTLHTVSQNLLALSPLGITPTADEQRCVLPIQASDREAVAALLREAGVSGPYIVIHPSSRWFFKCWEDDRFAGLAEALASDGWSIVLTAAPDPAEMDMVAAIQGKIRSDRVVSVAGRLTLNQLAAIIDGARMFIGVDSVPMHMAAALGKDTVALFGPSKIHEWHPWMTRHRLLNAADYGELIDPDQVDTSTRQRYLKNIPLEAALRASRELLSSPAQE, MGSDKIHHHHHHMPSSVCGDPMMCQNCKKSVPNAIFHVYHRRGFHYPAQKCEENFILFLIKGEMLVNSREYAGTMLKAGEFMLQPISSKIEMLAMTDVECIYYQFNQPELFCDIRYNRIMKETDPPLIPSPLPIIPELQHFLESARTYLSEKKICRDLLSLKRKELAFILGYFYSDYDLASLVHPLSKYASSFECFVYQNYKKVKTVEEFAKLGGYSQTTFRRIFDNVFHEPVYEWMLSRRKEEIIYELQNTEATISEICYKFGFESLPHFSNFCKKSFGTSPRSIRLKRSSE, MGSDKIHHHHHHMPTINSIQTTVNGVVKIVKPFNNDIAGEQFDPHVLQTLTAFKQPAILENDLAALRSGSLTPAIADPVGDAVTVQSRNITALNRTVSVEWLTPQNVINHTVLVYFHGGAFYGGVPGNNTVLLKLVAAKSHCEILNVDYSLAPEAPAPAGILDGLAIFQYLEQRDAETMITVAGDSAGANVIMAATNLNQQLGSNRINQQLLLYPVTAPNADHAGPLWDLAAFPIIDSQRAILTNYHDLFRQLDSIMTDYYVPENFDSHSPLISPLHQENFTMTPPTTIMVGEFDPFRPQAWAYAQRLAAADTATTFIQYQGLNHAFAPLVDQYWQSQDVAQVMAAALI, MGSDKIHHHHHHMPVFYPAVQGSLPMGGQESLPLRRLKSFQPLGRLTDDQLVLLASRAERRTHGPGQRVMERGVRDGLDYFLISGAVELQSVDGRKSTIEAETDKALNPVARLQPRMYDVTAVKPCEFLVIEQEVLNQMLRAAPISQVEMDSSDHDEDQSEEHHLLMEFYSELRSNQVQLPSVPDVAWKVRRVVDREDSSATEVASAVSADPAMAAKLVRSCNSPLYRGFSDVRNVREAVVRLGMRTTRQLVTVFAMREVFKTRRAPLQKEMEQLWRHSREVAALCWVLADHATRIDPEEALLAGLLHDIGVVPVLVQAEHHVNLFADDRNLHHAIDELRADVGCAVLENWAFPKAFVEAVRHAEDWHHECRETAPQLVDVVIVAQLHSMIGSSQNEGLPAFDQVPAWRRLGELELNASRSLQLLSEARERVDEVQKLLSIR, MGSDKIHHHHHHMPVMDRAAMRTMATLQPSCMRWLCTTPSILDAAKAGWPISWAATPDSPATVTIRQFQASTCCRKKTFDVVVNTDVLEHVPEAELDCVLRDFRKLSTNAIIIPHLAKATRILPNGENAHCTIKTPSEWAQVFKRHYAHVYELPHHSAVHALFLCGDQERDVTALRGILEQYVAAKNEVRHHLLPLGKRIEKAIRLIRGKDINR, MGSDKIHHHHHHMQAFDELLTVEQLSFSYEEDEKPVFQDISFELQKGECVLLLGPSGCGKSSLALCLNGLYPEACDGIQSGHVFLFQKPVTDAETSETITQHAGVVFQDPDQQFCMLTVEDEIAFGLENLQIPKEEMTEKINAVLGKLRITHLKEKMISTLSGGQKQKVALACILAMEPELIILDEPTSLLDPFSAREFVHLMKDLQREKGFSLLVIEHQLDEWAPWIERTIVLDKSGKKALDGLTKNLFQHEAETLKKLGIAIPKVCHLQEKLSMPFTLSKEMLFKEPIPAGHVKKKKAPSGESVLEVSSLSFARGQQAIFKDISFSLREGSLTALVGPNGTGKSTLLSVLASLMKPQSGKILLYDQPLQKYKEKELRKRMGFVFQNPEHQFVTDTVYDELLFGQKANAETEKKAQHLLQRFGLAHLADHHPFAISQGQKRRLSVATMLMHDVKVLLLDEPTFGQDARTAAECMEMIQRIKAEGTAVLMITQGYGASLFVC, MGSDKIHHHHHHMQFPSIEDLRARNTMKWTRYGQGVLPLWVAESDFSTCPAVLQAITDAVQREAFGYQPDGSLLSQATAEFYADRYGYQARPEWIFPIPDVVRGLYIAIDHFTPAQSKVIVPTPAYPPFFHLLSATQREGIFIDATGGINLHDVEKGFQAGARSILLCNPYNPLGMVFAPEWLNELCDLAHRYDARVLVDEIHAPLVFDGQHTVAAGVSDTAASVCITITAPSKAWNIAGLKCAQIIFSNPSDAEHWQQLSPVIKDGASTLGLIAAEAAYRYGTDFLNQEVAYLKNNHDFLLHEIPKRIPGAKITPMQATYLMWIDFRDTTIEGSPSEFFIEKAKVAMNDGAWFGEDGTGFCRLNFATSREVLEEAIDRMAKAVSHHT, MGSDKIHHHHHHMQISNEDYEQLKPLLFSLGYRLLGSVTDAEDLVQETFLRAYQAEEREINNKKAYLCKMMTNRCLDVLKSARRKREQYVGPWLPEPLLITSDDPSEAILQKEGLSMAYLRMMEHLTPHERAVFLLREVFTFSYREIASMMEKKEDNCRKLYSRAKEKLSAVKGESLHYENNRSVVDRFIHSFQTEDQGDLLELLSDHVTLYTDGGGKVRAALRPIYTKDHVAAFLFGIAKKRPNDFYVEVKNVNGQPALISYADSKLYNVICFYIVGGQIQDIYIIMNPEKLPSNG, MGSDKIHHHHHHMQKEQCYMCEKSATSAEHVPPKCLFPEFKDAKKNLRVNLITVPSCDEHNGKKSHDDEFLMVSIAGIIGNNSIGYQHYSGKIQRALRRTSYKLLEKVFLRKELVRIGDENKFIEILWGTPDYERLINCFSHIAYGIYHHHFKQKFYGVLKPYLGFLHTNEQNPKAFKAFIKEKVRVELADEPKYGDNLEVFYYQFTKPDNFGIFLVKLCFYQNVDVFVSYMPSGAQKPTHLGFELMNRGIKTIITLGDKEYEFN
